Target: 3HA-3FLAG-CIAO3-C190S/C395S (human) (UniProt Q9H6Q4)
Experiment: affinity purification with mass spectrometry; anti-HA beads on lysates of Flp-In 293 cells expressing the 3HA-3FLAG-tagged bait (NUBP2, wildtype or mutant CIAO3); targeted proteomics assay (parallel reaction monitoring) of CIA components and substrates; CIAO3 purifications normalised to CIAO3; wildtype CIAO3 cells also treated with FAC or DFO for 8 h

Sequence of 3HA-3FLAG-CIAO3-C190S/C395S (human) (Q9H6Q4 whole entry C190S/C395S): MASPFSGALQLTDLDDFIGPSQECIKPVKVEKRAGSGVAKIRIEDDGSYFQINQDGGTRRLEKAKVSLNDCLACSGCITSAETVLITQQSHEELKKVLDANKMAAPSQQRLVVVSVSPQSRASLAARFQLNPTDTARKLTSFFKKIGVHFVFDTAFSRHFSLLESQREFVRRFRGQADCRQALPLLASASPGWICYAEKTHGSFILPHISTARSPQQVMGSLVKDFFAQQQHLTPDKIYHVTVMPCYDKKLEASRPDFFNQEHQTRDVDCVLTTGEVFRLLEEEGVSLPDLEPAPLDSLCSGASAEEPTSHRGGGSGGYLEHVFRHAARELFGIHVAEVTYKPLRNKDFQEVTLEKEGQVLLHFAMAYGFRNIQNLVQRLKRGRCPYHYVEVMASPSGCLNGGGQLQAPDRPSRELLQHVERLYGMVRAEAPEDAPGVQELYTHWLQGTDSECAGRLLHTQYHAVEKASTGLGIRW

Substance: The CIA targeting complex
- fold decrease against wildtype CIAO3: 3 to 4 fold
